Source: publication PMC11825094, “Tonic ubiquitination of the central body weight regulator melanocortin receptor 4 (MC4R) promotes its constitutive exit from cilia” (PLOS Biology, 2025)

Target: melanocortin receptor 4 (MC4R)-3xmNeonGreen, human (human, UniProt P32245 1-332, a fraction carries K63-linked polyubiquitin chains (smear above the main band))
Experiment: cell-based or functional assay

Chain of melanocortin receptor 4 (MC4R)-3xmNeonGreen, human (P32245 whole entry): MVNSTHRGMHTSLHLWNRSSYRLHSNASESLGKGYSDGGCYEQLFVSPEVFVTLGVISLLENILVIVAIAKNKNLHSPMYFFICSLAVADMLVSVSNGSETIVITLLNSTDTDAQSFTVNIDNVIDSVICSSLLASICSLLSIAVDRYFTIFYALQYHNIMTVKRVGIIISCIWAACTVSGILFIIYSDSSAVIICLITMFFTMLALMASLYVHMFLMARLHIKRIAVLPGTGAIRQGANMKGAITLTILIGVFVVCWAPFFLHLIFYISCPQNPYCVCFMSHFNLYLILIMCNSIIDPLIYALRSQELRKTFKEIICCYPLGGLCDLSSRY

B1: melanocortin receptor accessory protein 2 (MRAP2)-3xFLAG, murine (natural protein, mouse, UniProt D3Z1Q2 3-207, looked up)
chain: MSAQRLASNRTSPQSPSNSDYTWEYEYYEIGPVSFEGLKAHKYSIVIGFWVGLAVFVIFMFFVLTLLTKTGAPHQDNAESSERRFRMNSFVSDFGKPLESDKVFSRQGNEESRSLFHCYINEVEHLDRVKVCHQTTAIDSDVHLQEASRSSGRPEEELARFMKFDIPNFVNTEQSSFGEDDLLISEAPVLLENKPVSQTSRIDLD
  ciliary fluorescence of MRAP2^3FLAG in IMCD3-[MRAP2^3FLAG/MC4R^3NG] cells treated with 5 nM HS014, time course, against vehicle: 11 fold
  ciliary fluorescence of MRAP2^3FLAG in IMCD3-[MRAP2^3FLAG/MC4R^3NG] cells treated with 50 nM AgRP, time course, against vehicle: 25 fold
